Assay: soluble on expression in E. coli; label from the status in PepcDB or PDB records

Row | Sequence | soluble on expression in E. coli
1 | SSFQTSLPRLPVPAVKDTVNRYLQSVRPLMKEEDFKRMTALAQDFAVGLGPRLQWYLKLKSWWATNYVSDWWEEYIYLRGRGPLMVNSNYYAMDLLYILPTHIQAARAGNAIHAILLYRRKLDREEIKPIRLLGSTIPLCSAQWERMFNTSRIPGEETDTIQHMRDSKHIVVYHRGRYFKVWLYHDGRLLKPREMEQQMQRILDNTSEPQPGEARLAALTAGDRVPWARCRQAYFGRGKNKQSLDAVEKAAFFVTLDETEEGYRSEDPDTSMDSYAKSLLHGRCYDRWFDKSFTFVVFKNGKMGLNAEHSWADAPIVAHLWEYVMSIDSLQLGYAEDGHCKGDINPNIPYPTRLQWDIPGECQEVIETSLNTANLLANDVDFHSFPFVAFGKGIIKKCRTSPDAFVQLALQLAHYKDMGKFCLTYEASMTRLFREGRTETVRSCTTESCDFVRAMVDPAQTVEQRLKLFKLASEKHQHMYRLAMTGSGIDRHLFCLYVVSKYLAVESPFLKEVLSEPWRLSTSQTPQQQVELFDLENNPEYVSSGGGFGPVADDGYGVSYILVGENLINFHISSKFSCPETDSHRFGRHLKEAMTDIITLFGLSSNSKK | soluble
2 | MDRNSLSNSLKTCYKYLNQTSRSFAAVIQALDGEMRNAVCIFYLVLRALDTLEDDMTISVEKKVPLLHNFHSFLYQPDWRFMESKEKDRQVLEDFPTISLEFRNLAEKYQTVIADICRRMGIGMAEFLDKHVTSEQEWDKYCHYVAGLVGIGLSRLFSASEFEDPLVGEDTERANSMGLFLQKTNIIRDYLEDQQGGREFWPQEVWSRYVKKLGDFAKPENIDLAVQCLNELITNALHHIPDVITYLSRLRNQSVFNFCAIPQVMAIATLAACYNNQQVFKGAVKIRKGQAVTLMMDATNMPAVKAIIYQYMEEIYHRIPDSDPSSSKTRQIISTIRTQN | soluble
3 | MSLNTQDFLAGYTKRFVDNKEEDMSLDEYLELCKTDPTAYANPAERLLMAIGEPELIDTRHDPVLSRIFSNKIIHHYEVFEDFYGMEEPIEQIVGFLKHAAQGLEETKQVLYLLGPVGGGKSSIAEKLKDLMERVPFYAIKGSPVFESPLSLFNPQEDGELLRERFGIPTRYLRYLMSPWAVKRLQEYNGDISKFRVIKVKPSRLKQIAIAKTEPGDENNQDISSLVGKVDIRKLEEFSQDDPDAYSYSGGLCRANRGLLEFVEMFKAPIKVLHPLLTATQEGNYNATEGLSAIPFEGIILAHSNESEWQSFRNNKNNEAFIDRINIVKVPYCLRVSEEIKIYQKLIHNSSLANAPCAPGTLDMLAQFSVLTRLKEPQNSSIYSKMRVYNGESLKDTDPKAKSYQEYRDFAGVDEGMSGISTRFAFKILSKVFNFDHTEVAANPVHLMYVLERQIEQEQFPQELHETYLNFIKEYLATKYVDFIGKEIQTAYLESYSEYGQNIFDRYITYADFWIQDQDYRDPDTGEIFDRALLNLELEKIEKPAGISNPKDFRNEVVNFVLRARANNRGKNPVWNSYEKLKSVIEKKMFTNTEDLLPVISFNAKASEEDKKKHEEFISRMVEKGYTRKQVRLLCEWYLRVRKSQEGHHHHHH | soluble
4 | EVVRLGDVLELCQYGLSVPLKDKGKYPVIRMDEIVNGYVVTDIAKYADLDEETFKNFKLEKGDVLFNRTNSLELVGRTGIFLLDGYYVFASYLIRLRPKHEILHPHFLTFYLIFSQSRLKQLATVAVHQANINATNLKKFKIPLPPLPEQQKIAEILSTV | soluble
5 | MYPVDLHMHTVASTHAYSTLSDYIAQAKQKGIKLFAITDHGPDMEDAPHHWHFINMRIWPRVVDGVGILRGIEANIKNVDGEIDCSGKMFDSLDLIIAGFHEPVFAPHDKATNTQAMIATIASGNVHIISHPGNPKYEIDVKAVAEAAAKHQVALEINNSSFLHSRKGSEDNCREVAAAVRDAGGWVALGSDSHTAFTMGEFEECLKILDAVDFPPERILNVSPRRLLNFLESRGMAPIAEFADL | soluble
6 | MPRIAIPDDLTEILTVVEFPLPNAPEIKIEIERLLQATGNSLSGKVTDDLVRSCQGLSMERIRRVLAKAIATHGELQPEDVDLVLEEKRQTIRQTQILDFYPATEQISDIGGLDNLKDWLLRRGGSFSERARQYGLPHPRGLLLEHHHHHH | not soluble
7 | MTSPVPRLIEQFERGLDAPICLTWELTYACNLACVHCLSSSGKRDPGELSTRQCKDIIDELERMQVFYVNIGGGEPTVRPDFWELVDYATAHHVGVKFSTNGVRITPEVATRLAATDYVDVQISLDGATAEVNDAIRGTGSFDMAVRALQNLAAAGFAGVKISVVITRRNVAQLDEFATLASRYGATLRITRLRPSGRGTDVWADLHPTADQQVQLYDWLVSKGERVLTGDSFFHLAPLGQSGALAGLNMCGAGRVVCLIDPVGDVYACPFAIHDHFLAGNVLSDGGFQNVWKNSSLFRELREPQSAGACGSCGHYDSCRGGCMAAKFFTGLPLDGPDPECVQGHSEPALARERHLPRPRADHSRGRRVSKPVPLTLSMRPPKRPCNESPV | not soluble
8 | MGSSHHHHHHSSGLVPRGSHMASMYTVGDYLLDRLHELGIEEIFGVPGDYNLQFLDQIISREDMKWIGNANELNASYMADGYARTKKAAAFLTTFGVGELSAINGLAGSYAENLPVVEIVGSPTSKVQNDGKFVHHTLADGDFKHFMKMHEPVTAARTLLTAENATYEIDRVLSQLLKERKPVYINLPVDVAAAKAEKPALSLEKESSTTNTTEQVILSKIEESLKNAQKPVVIAGHEVISFGLEKTVTQFVSETKLPITTLNFGKSAVDESLPSFLGIYNGKLSEISLKNFVESADFILMLGVKLTDSSTGAFTHHLDENKMISLNIDEGIIFNKVVEDFDFRAVVSSLSELKGIEYEGQYIDKQYEEFIPSSAPLSQDRLWQAVESLTQSNETIVAEQGTSFFGASTIFLKSNSRFIGQPLWGSIGYTFPAALGSQIADKESRHLLFIGDGSLQLTVQELGLSIREKLNPICFIINNDGYTVEREIHGPTQSYNDIPMWNYSKLPETFGATEDRVVSKIVRTENEFVSVMKEAQADVNRMYWIELVLEKEDAPKLLKKMGKLFAEQNK | soluble
9 | MKLQQLRYIVEVVNHNLNVSSTAEGLYTSQPGISKQVRMLEDELGIQIFARSGKHLTQVTPAGQEIIRIAREVLSKVDAIKSVAGEHTWPDKGSLYVATTHTQARYALPGVIKGFIERYPRVSLHMHQGSPTQIAEAVSKGNADFAIATEALHLYDDLVMLPCYHWNRSIVVTPEHPLATKGSVSIEELAQYPLVTYTFGFTGRSELDTAFNRAGLTPRIVFTATDADVIKTYVRLGLGVGVIASMAVDPVSDPDLVKLDANGIFSHSTTKIGFRRSTFLRSYMYDFIQRFAPHLTRDVVDTAVALRSNEDIEAMFKDIKLPEK | soluble
10 | MAHHHHHHMEGFPLGLAVIIDPPREKESGAMVEAHAARDNGSAAGSLSNGETNTADTGGDAYSGHSINNREQVPIALHNVCPTRFLWSRYEENGGMLLHMPRSKVCREHRKGLCRFGNECSFLHVCRQMPIGSGDEELLSHSRTPLRHSTVQGSMQDFSHPPSFATASGSLCHHAHSQSYSQANLQHFQGSTVMSQNGSYMDGSLGNSQTGSRPHLSRAPTASESYGGHQPLLRPLGGVQNSHSSVAARGSFSHNPYAEASSFQS | not soluble
11 | MSLKWIDSHIHVDQYKDEEKSRLLKDVENSKEIQGLIAVSMNYQSSKEILSLAKRYSFVHPAVGFHPEQPIHKEECEKIYKLIEDHVEDIVAIGEVGLPYYLRKEDEHIAINSYISVLQRFVELASKYDLPIVLHAVYEDADVVCDLLEKHKVSRAHFHWFKGSETTMERMMRNGYYISITPDVLHKEKIRKIVSYYPLEYMMVETDGPWGFQEGVMTHPGMIREVLKEISVIKNVAVDKVAETIYENTIQFYLKGEGHHHHHH | soluble
12 | MLRLLLLCWLCGVSFIGGAQELRVKDTASLTQALVQAQDGDTLVLDTAVYEGNFSVTRSIHIKGEAGATLDAQRQGSALTITAPKVIVEGLNIRHWGRDLYYHDAGILLLPGADEVLIKGNRFVGDGFGIYGEQLASPRIIENSISGNGAIYVLDRGDGIFLKHVTAPDVQQNHIIFVRDGVYLESVTDSKIHHNQFAKLQYGIHYMYTRGDEASQNQATSVDGGYALMNSQQIYLHHNRVSQARDFGILLNITNDSHVQANIATEVQHPQGSVELGNEGKGIFIYAAQNNRIEDNEFSQSDTGISMAMGGEANRLWHNRILGNQTQVKYVGEAQLEWSYQGQGNYWSEYRGWDTNGDGVGDIAHRPNDSLDKLFWLYPEAKLLMESPVVLLLRWVERQFQPTSISGVSDSFPLMRLITEGDGIAAALEHHHHHH | soluble
13 | AIAELTGQRLREGDGPDGPADDGAGAQADLEHSLLVAAEKKDEGPYRMEHFRWGSPPKDKRYGGFMTSEKSQTPLVTLFKNAIIKNAYKKGE | soluble
14 | MYVMTQSGWLELICGCMFSGKSEELIRRVRRAQFAKQEVKVFKPTIDNRYSEDAVVSHNGNSVIAIPVATPAEMFRYISAATDVVAIDEIQFFSDDIIDVVQTLADCGYRVIAAGLDQDFRGEPFGPVPALMAIAESVTKLQAVCTVCGSPASRTQRLINGAPASYDDPVILVGASEAYEPRCRHHHEVPGKPKKRYNHPLAGHTGE | soluble
15 | DEPNQPSTPEAVTKTVTIDASKYETWQYFSFSKGEVVNVTDYKNDLNWDMALHRYDVRLNCGESGKGKGGAVFSGKTEMDQATTVPTDGYTVDVLGRITVKYEMGPDGHQMEYEEQGFSEVITGKKNAQGFASGGWLEFSHGPAGPTYKLSKRVFFVRGADGNIAKVQFTDYQDAELKKGVITFTYTYPVK | soluble
16 | GSSHHHHHHSSGRENLYFQGHMPKRRKSVTGEIVLITGAGHGIGRLTAYEFAKLKSKLVLWDINKHGLEETAAKCKGLGAKVHTFVVDCSNREDIYSSAKKVKAEIGDVSILVNNAGVVYTSDLFATQDPQIEKTFEVNVLAHFWTTKAFLPAMTKNNHGHIVTVASAAGHVSVPFLLAYCSSKFAAVGFHKTLTDELAALQITGVKTTCLCPNFVNTGFIKNPSTSLGPTLEPEEVVNRLMHGILTEQKMIFIPSSIAFLTTLERILPEGS | soluble
17 | MRERRYSSTSPERLAAALFDVAAESGLEGASVREVAKRAGVSIGAVQHHFSTKDEMFAFALRTLVDKLLARLSEVERGGDPARALFAAMSQLLPLDEARSREAHVMAAFAVRAATSPSLAEIRRKTLFTIRTGLSAVLIGIGTPEAETRAALLLATVDGLALDAIGSPALYPPEYLEHALDIQIGMILQGADVVPSSSIELAS | soluble
18 | MSLSNFKSISLTYRKAPLEIRERVALNEAECKSLMLRIKDFTDTAELLILSTCNRTEIYYTSNEDYSNDIIKLLGVEKNITGLIQQKEYFEIYNEQADAVLHLFEVGIGLDSQVVGDMQIVNQVKYAYQWSADLNLAGPFLHRLMHTIFFTNKRVVQETAFRDGAASVSYATVELSEELLSATPNANILIVGLGEIGADVCRNFKANTSFKNITLTNRSPLKSEALAAECGIEHVPFETLWEAVAKADLVISSVAKEEPLFTKEEIQKLSILSHKYFIDLSVPRSVDARAEELPGIIVYDIDHIQNRSNEALENRLNAIPHVRKIILDSIVEFNEWSKEMEVSPTINKLKNALEQIRKEELSRFVKQLSDEEAKKVDEITKSIMQKIIKLPVLQLKAACKRGEAETLIDVLNDLFNLDKQPEQIREGHHHHHH | soluble

From the DeepSol protein solubility set
